{"source": "paper PMC12559229", "about": "“Conserved hydrophilic checkpoints tune FocA-mediated formate:H^+ symport” (Nature Communications, 2025)", "binders": {"B1": {"name": "FocA (formate channel), wild type, full length, C-terminal StrepII-tag (natural protein, E. coli, UniProt P0AC23 1-285, looked up)", "chain": "MKADNPFDLLLPAAMAKVAEEAGVYKATKHPLKTFYLAITAGVFISIAFVFYITATTGTGTMPFGMAKLVGGICFSLGLILCVVCGADLFTSTVLIVVAKASGRITWGQLAKNWLNVYFGNLVGALLFVLLMWLSGEYMTANGQWGLNVLQTADHKVHHTFIEAVCLGILANLMVCLAVWMSYSGRSLMDKAFIMVLPVAMFVASGFEHSIANMFMIPMGIVIRDFASPEFWTAVGSAPENFSHLTVMNFITDNLIPVTIGNIIGGGLLVGLTYWVIYLRENDHH", "notes": "FocA, formate channel of the formate-nitrite transporter family, E. coli, UniProt P0AC23, full length; Pentamer in the cryo-EM structure; In the sulfo-SDA experiment FocA was first modified on amines with sulfo-SDA; also called native FocA; wild-type FocA; source: E. coli BL21(DE3) transformed with pfocA3; solubilised from membranes with DDM, purified (Strep-Tactin Sepharose); not shown: StrepII, …"}, "B2": {"name": "FocA-H209N variant, C-terminal StrepII-tag (natural protein, E. coli, UniProt P0AC23 1-285, looked up)", "chain": "B1 chain with H209N", "notes": "FocA, E. coli, UniProt P0AC23, with the exchange H209N; made by mutagenesis of pfocA3, which carries the native focA gene; Reconstructed with C5 symmetry; also called H209N-FocA; source: E. coli BL21(DE3) transformed with pfocAH209N; solubilised from membranes with DDM, purified (Strep-Tactin Sepharose); not shown: StrepII, C-terminal, kept"}, "B3": {"name": "FocA N-terminal peptide (residues 1-35 of FocA, GS linker, Strep-II tag) (peptide)", "peptide": "MKADNPFDLLLPAAMAKVAEEAGVYKATKHPLKTF-{GS linker-Strep‑II tag}", "modifications": "reading uncertain", "notes": "FocA, E. coli, residues 1-35 (the N-terminus of FocA); Whole peptide as printed, 45 residues: [residues removed]; also called N-terminal FocA peptide (1-45); N-terminal peptide of FocA; source: synthetic peptide (Thermo Fisher); not shown: StrepII (after a GS linker), C-terminal, kept"}}, "key": {"[1]": {"target": "the molecule itself", "test": "cryo-EM structure; purified StrepII-tagged FocA solubilised in DDM, 5 mg/mL, vitrified at 4 °C; single-particle reconstruction with C5 symmetry (wild type also C1)"}, "[2]": {"target": "T1, Pyruvate formate-lyase (PflB), full length, His-tagged (E. coli, UniProt P09373 1-760)", "T1 construct": "Pyruvate formate-lyase PflB, E. coli, UniProt P09373, full length; also called His-tagged PflB", "T1 sequence (looked up)": "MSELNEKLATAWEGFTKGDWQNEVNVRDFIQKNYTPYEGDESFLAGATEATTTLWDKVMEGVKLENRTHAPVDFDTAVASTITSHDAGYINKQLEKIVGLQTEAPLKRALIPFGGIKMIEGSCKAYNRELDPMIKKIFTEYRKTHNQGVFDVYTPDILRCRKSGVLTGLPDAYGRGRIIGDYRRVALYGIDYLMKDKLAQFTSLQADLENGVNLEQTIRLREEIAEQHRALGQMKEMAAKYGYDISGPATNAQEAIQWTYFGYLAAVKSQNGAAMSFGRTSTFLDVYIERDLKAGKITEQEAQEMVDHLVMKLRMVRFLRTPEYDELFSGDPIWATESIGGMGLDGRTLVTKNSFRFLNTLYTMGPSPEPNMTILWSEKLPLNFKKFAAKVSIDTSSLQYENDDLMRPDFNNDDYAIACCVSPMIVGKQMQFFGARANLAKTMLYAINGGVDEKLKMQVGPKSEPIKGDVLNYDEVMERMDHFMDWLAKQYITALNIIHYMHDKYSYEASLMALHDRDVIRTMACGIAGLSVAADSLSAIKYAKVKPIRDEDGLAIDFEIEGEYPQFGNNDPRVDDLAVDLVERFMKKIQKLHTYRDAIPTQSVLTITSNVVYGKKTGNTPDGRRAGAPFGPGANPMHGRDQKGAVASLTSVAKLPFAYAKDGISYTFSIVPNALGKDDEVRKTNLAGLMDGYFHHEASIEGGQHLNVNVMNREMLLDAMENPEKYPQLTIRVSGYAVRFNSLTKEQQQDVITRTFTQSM", "test": "cross-linking; XL-MS with sulfo-SDA: 10 uM FocA modified with 50-fold sulfo-SDA (100 mM MOPS, 150 mM NaCl, DDM, pH 7.0), then mixed with 10 uM PflB and UV-irradiated (365 nm); digest with trypsin and GluC, LC/MS/MS", "conditions": "both partners purified"}, "[3]": {"target": "T1, Pyruvate formate-lyase (PflB), full …", "test": "cross-linking; XL-MS with DSBU: 10 uM PflB with equimolar FocA N-terminal peptide, 50- or 100-fold DSBU, 30 min, room temperature, 100 mM MOPS, 150 mM NaCl, pH 7.0; digest with trypsin and GluC, LC/MS/MS", "conditions": "both partners purified"}}, "note": "Substitutions are numbered along the chain they refer to. In names and notes the source's numbering stands. Ends that are not written are not given here. GS linker = not defined here", "data": [{"binder": "B1", "values": [{"measurement": "stoichiometry N", "setting": "[1]", "result": 5}, {"measurement": "binding result", "setting": "[2]", "result": "binds"}]}, {"binder": "B2", "values": [{"measurement": "binding result", "setting": "[1]", "result": "binds"}]}, {"binder": "B3", "values": [{"measurement": "binding result", "setting": "[3]", "result": "binds"}]}]}
